US20180291110A1 (Hoffmann-La Roche, published 2018)

B1: 2/99 VH12/VL6 (antibody, V domains shown)
VH: QVQLQESGPGLVKPSETLSLTCTVSGFSLSSYAMSWIRQPPGKGLEWIGYIWSGGSTDYNPSLKSRVTISVDTSKNQFSLKLSSVTAADTAVYYCARRYGTSYPDYGDANGFDPWGQGTLVTVSS
VL: AIQLTQSPSSLSASVGDRVTITCRASQSISSYLSWYQQKPGKAPKLLIYRASTLASGVPSRFSGSGSGTDFTLTISSLQPEDFATYYCQQSYSSSNVDNTFGGGTKVEIK
B2: 2/99 VH13/VL6 (antibody, V domains shown)
VH: QVQLQESGPGLVKPSETLSLTCTVSGFSLSSYAMSWIRQPPGKGLEWIGYIWSGGSTDYNPSLKSRVTISVDTSKNQVSLKLSSVTAADTAVYYCARRYGTSYPDYGDANGFDPWGQGTLVTVSS
VL: AIQLTQSPSSLSASVGDRVTITCRASQSISSYLSWYQQKPGKAPKLLIYRASTLASGVPSRFSGSGSGTDFTLTISSLQPEDFATYYCQQSYSSSNVDNTFGGGTKVEIK
B3: 2/99 VH16/VL6 (antibody, V domains shown)
VH: QQLQESGPGLVKPSETLSLTCTVSGFSLSSYAMSWVRQPPGKGLEWIGYIWSGGSTDYNPSLKSRVTISVDTSKNQVSLKLSSVTAADTAVYYCARRYGTSYPDYGDANGFDPWGPGTLVTVSS
VL: AIQLTQSPSSLSASVGDRVTITCRASQSISSYLSWYQQKPGKAPKLLIYRASTLASGVPSRFSGSGSGTDFTLTISSLQPEDFATYYCQQSYSSSNVDNTFGGGTKVEIK
B4: 2/99 VH18/VL6 (antibody, V domains shown)
VH: QVQLQESGPGLVKPSQTLSLTCTVSGFSLSSYAMSWIRQHPGKGLEWIGYIWSGGSTDYAPSLKSRVTISVDTSKNQFSLKLSSVTAADTAVYYCARRYGTSYPDYGDANGFDPWGQGTLVTVSS
VL: AIQLTQSPSSLSASVGDRVTITCRASQSISSYLSWYQQKPGKAPKLLIYRASTLASGVPSRFSGSGSGTDFTLTISSLQPEDFATYYCQQSYSSSNVDNTFGGGTKVEIK
B5: 2/99 VH17/VL6 (antibody, V domains shown)
VH: QQLQESGPGLVKPSETLSLTCTVSGFSLSSYAMSWVRQPPGKGLEWIGYIWSGGSTDYNPSLKSRVTISKDTSKNQVSLKLSSVTAADTAVYYCARRYGTSYPDYGDANGFDPWGPGTLVTVSS
VL: AIQLTQSPSSLSASVGDRVTITCRASQSISSYLSWYQQKPGKAPKLLIYRASTLASGVPSRFSGSGSGTDFTLTISSLQPEDFATYYCQQSYSSSNVDNTFGGGTKVEIK
B6: 2/99 VH19/VL6 (antibody, V domains shown)
VH: QSMQESGPGLVKPSQTLSLTCTVSGFSLSSYAMSWIRQHPGKGLEWIGYIWSGGSTDYAPSLKSRVTISVDTSKNQFSLKLSSVTAADTAVYYCARRYGTSYPDYGDANGFDPWGQGTLVTVSS
VL: AIQLTQSPSSLSASVGDRVTITCRASQSISSYLSWYQQKPGKAPKLLIYRASTLASGVPSRFSGSGSGTDFTLTISSLQPEDFATYYCQQSYSSSNVDNTFGGGTKVEIK
B7: 2/99 VH15/VL6 (antibody, V domains shown)
VH: QQLQESGPGLVKPSETLSLTCTVSGFSLSSYAMSWVRQPPGKGLEWIGYIWSGGSTDYNPSLKSRVTISVDTSKNQVSLKLSSVTAADTAVYYCARRYGTSYPDYGDANGFDPWGQGTLVTVSS
VL: AIQLTQSPSSLSASVGDRVTITCRASQSISSYLSWYQQKPGKAPKLLIYRASTLASGVPSRFSGSGSGTDFTLTISSLQPEDFATYYCQQSYSSSNVDNTFGGGTKVEIK
B8: 2/99 VH20/VL6 (antibody, V domains shown)
VH: QSMQESGPGLVKPSQTLSLTCTVSGFSLSSYAMSWIRQHPGKGLEWIGYIWSGGSTDYAPSLKSRVTISVDTSKNQVSLKLSSVTAADTAVYYCARRYGTSYPDYGDANGFDPWGQGTLVTVSS
VL: AIQLTQSPSSLSASVGDRVTITCRASQSISSYLSWYQQKPGKAPKLLIYRASTLASGVPSRFSGSGSGTDFTLTISSLQPEDFATYYCQQSYSSSNVDNTFGGGTKVEIK

These binders were tested against T1, human transferrin receptor (recombinant, for surface plasmon resonance) (human, UniProt P02786 89-760) (assay: SPR 25C).
T1 construct: also called huTfR; human transferrin receptor-biotinylated
T1 sequence (P02786 89-760 limits assumed): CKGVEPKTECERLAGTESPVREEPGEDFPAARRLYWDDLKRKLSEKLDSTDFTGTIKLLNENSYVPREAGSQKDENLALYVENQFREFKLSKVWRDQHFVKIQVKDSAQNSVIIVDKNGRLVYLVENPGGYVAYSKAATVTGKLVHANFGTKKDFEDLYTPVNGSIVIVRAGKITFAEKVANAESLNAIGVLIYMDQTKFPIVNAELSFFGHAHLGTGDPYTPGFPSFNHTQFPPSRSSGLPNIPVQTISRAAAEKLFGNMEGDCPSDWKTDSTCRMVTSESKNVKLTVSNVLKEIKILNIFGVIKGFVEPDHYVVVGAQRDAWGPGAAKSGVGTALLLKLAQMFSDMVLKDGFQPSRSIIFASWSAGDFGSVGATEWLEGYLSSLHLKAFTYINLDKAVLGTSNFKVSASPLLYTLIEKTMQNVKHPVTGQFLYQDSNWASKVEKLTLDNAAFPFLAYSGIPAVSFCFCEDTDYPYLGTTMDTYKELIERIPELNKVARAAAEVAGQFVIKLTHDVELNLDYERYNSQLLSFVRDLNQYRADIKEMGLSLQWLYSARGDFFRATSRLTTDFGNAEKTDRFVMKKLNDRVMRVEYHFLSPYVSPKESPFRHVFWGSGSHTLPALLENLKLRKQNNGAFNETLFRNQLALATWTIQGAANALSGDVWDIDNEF
For B1, the koff was 0.00705 s⁻¹. Work on B2 yielded a koff of 0.00365 s⁻¹. Binder B3 has a koff of 0.00339 s⁻¹. In the case of B4, the koff is reported as 0.00674 s⁻¹. B5 was tested, and the koff was 0.00171 s⁻¹. Binder B6 has a koff of 0.001 s⁻¹. In the case of B7, the koff is reported as 0.0035 s⁻¹. B8 gave a koff of 0.00606 s⁻¹.
